T1: NifK (ß subunit) of the MoFe protein (Azotobacter vinelandii, UniProt P07329 1-523)
T1 construct: Nitrogenase molybdenum-iron protein beta chain (NifK, ß subunit), Azotobacter vinelandii; The ß chain of m1 and m2, written alone; also called ß-subunit/NifK; source: A. vinelandii strain M1 (derivative of RS1), purified as part of the MoFe protein (HisTrap HP, Q-Sepharose)
T1 sequence: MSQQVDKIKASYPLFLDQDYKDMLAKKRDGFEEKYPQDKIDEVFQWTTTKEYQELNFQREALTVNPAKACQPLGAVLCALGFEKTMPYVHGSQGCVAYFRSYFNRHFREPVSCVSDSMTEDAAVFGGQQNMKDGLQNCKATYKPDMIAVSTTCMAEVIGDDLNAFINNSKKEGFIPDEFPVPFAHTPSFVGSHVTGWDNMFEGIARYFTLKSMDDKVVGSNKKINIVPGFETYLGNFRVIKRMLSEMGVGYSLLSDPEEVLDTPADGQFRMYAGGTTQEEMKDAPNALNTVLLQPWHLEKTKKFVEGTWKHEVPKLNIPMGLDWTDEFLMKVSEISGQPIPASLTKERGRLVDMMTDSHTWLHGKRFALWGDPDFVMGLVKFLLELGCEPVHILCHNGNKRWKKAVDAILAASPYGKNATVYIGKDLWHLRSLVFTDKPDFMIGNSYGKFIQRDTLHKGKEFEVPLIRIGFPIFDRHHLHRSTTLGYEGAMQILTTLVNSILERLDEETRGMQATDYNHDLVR


Key:
[1] = target: Strep-inhibited α-C45A/L158C MoFe protein (Azotobacter vinelandii) (UniProt P07328); assay: SEC; analytical gel filtration of MoFe protein pre-treated with 5 molar equivalents of L127Δ Fe protein
[2] = target: T1, NifK (ß subunit) of the MoFe protein; assay: native gel or EMSA; anoxic native-PAGE of the MoFe protein alone; details: both partners purified

Molecule	percent of the broadened MoFe peak that is MoFe:Fe1 complex (multi-Gaussian peak analysis) [1] [%]	binding result [2]
L127Δ Fe protein (non-ATP-hydrolyzing NifH2 mutant) (enzyme)	68	
NifD (α subunit) of the Strep-inhibited α-C45A/L158C MoFe protein (natural protein, Azotobacter vinelandii, C158 joined by thiol-maleimide Michael addition to the peptide maleimide-GGGWSHPQFEK | N-terminal maleimide, joined to C158 of the α subunit, Nitrogenase molybdenum-iron protein alpha chain (NifD, α subunit), Azotobacter vinelandii; The α chain of m2, written alone; in the sample only part of the α subunits carry the peptide; also called Strep-modified α subunit) GMSREEVESLIQEVLEVYPEKARKDRNKHLAVNDPAVTQSKKAIISNKKSQPGLMTIRGCAYAGSKGVVWGPIKDMIHISHGPVGCGQYSRAGRRNYYIGTTGVNAFVTMNFTSDFQEKDIVFGGDKKLAKLIDEVETLFPLNKGISVQSECPIGCIGDDIESVSKVKGAELSKTIVPVRCEGFRGVSQSLGHHIANDAVRDWVLGKRDEDTTFASTPYDVAIIGDYNIGGDAWSSRILLEEMGLRCVAQWSGDGSISEIELTPKVKLNLVHCYRSMNYISRHMEEKYGIPWMEYNFFGPTKTIESLRAIAAKFDESIQKKCEEVIAKYKPEWEAVVAKYRPRLEGKRVMLYIGGLRPRHVIGAYEDLGMEVVGTGYEFAHNDDYDRTMKEMGDSTLLYDDVTGYEFEEFVKRIKPDLIGSGIKEKFIFQKMGIPFREMHSWDYSGPYHGFDGFAIFARDMDMTLNNPCWKKLQAPWEASEGAEKVAASA peptide: GGGWSHPQFEK		binds

Source: publication PMC10207099, “Nitrogen Fixation and Hydrogen Evolution by Sterically Encumbered Mo-Nitrogenase” (JACS Au, 2023)
